Source: patent US20150203555A1

T1: Vascular endothelial growth factor (VEGF165), P15692
T1 chain: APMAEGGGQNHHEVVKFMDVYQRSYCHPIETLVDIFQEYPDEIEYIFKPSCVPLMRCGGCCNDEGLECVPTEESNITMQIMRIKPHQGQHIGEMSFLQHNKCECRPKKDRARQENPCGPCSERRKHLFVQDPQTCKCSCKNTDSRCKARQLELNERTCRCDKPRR


Biological target: T1, Vascular endothelial growth factor …
Assay: competition FP, tracer BODIPY-v114*ΔNT

| Ki | Binder |
| --- | --- |
| > 100 µM | VDNKFNKEQHNARAIEAALDPNLNDQQFHAKIWSIIDD (modifications not checked) [α-VEGF-1] |
| > 100 µM | VDNKFNKEMHNAYAIEIALLPNLNDQQFHAFIWSLIDD (modifications not checked) [Z-VEGF (1-38)] |
